Reference: US10234460B2, “Macrocyclic peptide, method for producing same, and screening method using macrocyclic peptide library” (The University of Tokyo, priority 2013, dated 2019)
Bridge positions count the residues as written; N and C are the ends. Square brackets hold non-standard residues; d marks the D form. Ends that are not written are not given here. * marks the point of attachment. chloroacetamidine = chloroacetamidine warhead on ornithine δ-NH2, N=C(CCl)*; Ahp(2) = CCCCC[C@H](N)C(=O)O; Orn = NCCC[C@H](N)C(=O)O

Columns and labels:
PAD4 = molecular target: T1, PAD4 (Homo sapiens, UniProt Q9UM07); test: In vitro PAD4 inhibition assay, colorimetric analysis with COLDER solution, substrate BAEE; type: biochemical; conditions: peptide 0 μM to 50 μM, PAD4 0.2 μM, BAEE 10 mM; for PAD4 inhibition, dose dependence / PAD4 inhibitory activity compared with the existing PAD4 inhibitor: initial data
T1 construct: purchased Modiquest Research MQ 16.206-10
T1 sequence (Q9UM07 whole entry): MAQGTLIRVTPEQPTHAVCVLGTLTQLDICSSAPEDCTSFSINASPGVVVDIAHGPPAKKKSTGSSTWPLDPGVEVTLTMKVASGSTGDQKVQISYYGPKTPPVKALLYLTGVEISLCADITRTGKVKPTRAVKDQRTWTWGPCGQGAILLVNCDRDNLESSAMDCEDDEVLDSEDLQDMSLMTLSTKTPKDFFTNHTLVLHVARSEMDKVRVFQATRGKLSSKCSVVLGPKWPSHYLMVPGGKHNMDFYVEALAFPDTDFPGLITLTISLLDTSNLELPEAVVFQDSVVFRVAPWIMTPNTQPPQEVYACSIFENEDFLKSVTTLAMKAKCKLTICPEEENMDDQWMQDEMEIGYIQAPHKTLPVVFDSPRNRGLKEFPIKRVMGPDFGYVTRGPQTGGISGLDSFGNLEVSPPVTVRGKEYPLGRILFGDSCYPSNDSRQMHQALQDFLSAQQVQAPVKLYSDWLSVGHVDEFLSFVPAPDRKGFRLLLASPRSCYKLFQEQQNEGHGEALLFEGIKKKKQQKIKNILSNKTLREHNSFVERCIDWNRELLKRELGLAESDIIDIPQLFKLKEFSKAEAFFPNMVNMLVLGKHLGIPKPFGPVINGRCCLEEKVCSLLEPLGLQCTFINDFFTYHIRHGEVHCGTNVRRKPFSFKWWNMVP
Protocol: Human PAD4 was purchased from Modiquest Research (catalog no. MQ 16.206-10). Human PAD4 is a protein having NCBI accession no. CCDS180.1, a molecular weight of 74.08 kDa, and 663 amino acids.
PAD4 inhibition assay was performed using various concentrations of VB peptides in a reaction buffer containing 100 mM HEPES (pH 7.6) and 50 mM NaCl.
Before reaction was initiated by adding BAEE (final concentration: 10 mM), the above reaction mixture was incubated with PAD4 (0.2 μM) (in the presence of 5 mM CaCl2) at 37° C. for 15 minutes. After reaction for 30 minutes, the reaction was terminated by flash freezing in liquid nitrogen. For color development, 200 μL of a freshly prepared COLDER solution (2.25 M H3PO4, 4.5 M H2SO4, 1.5 mM NH4Fe(SO4), 20 mM diacetyl monoxime, and 1.5 mM thiosemicarbazide) was added to each of the reaction terminated solutions. The resulting mixture was vortexed to ensure complete mixing and then, incubated at 95° C. for 30 minutes (Firestein, G. S., 2003, Nature, 423(6937), 356-61; Jones, J. E., et al., ACS chemical biology, 7(1), 160-5). The absorbance at 540 nm was measured. Compared with a standard curve of Cit, the concentration of Cit produced during the reaction was determined.

HeLa cells = test: Intracellular introduction of fluorescently labeled peptides into living HeLa cells, confocal microscope; type: cell-based; conditions: 37° C., 60 minutes
Protocol: HeLa cells proliferated on a 90-mm plate until they reached sub-confluence and Trypsin/EDTA were treated at 37° C. for […] to release the cells from the plate. A culture dish (Iwaki) having a 35-mm glass bottom was seeded with 1×10^4 cells. […] The latter ones were used for confirming cell integrity. The intracellular distribution of the fluorescently labeled peptide was analyzed using a Leica TCS SP2 microscope equipped with an N PLAN 40× objective lens, without washing and immobilization. The HeLa cells were incubated with the fluorescently labeled peptides, at 37° C. for 60 minutes. […], they were observed under a confocal fluorescence microscope. All the assays were performed using a small dish with a glass bottom so that not a sample having the cells mounted thereon but a sample in a buffer was observed. DRAQ7 (3 μM) is a far-red fluorescent dye and it dyes only the nuclei of permeable dead cells. When the peptides are incubated, this DRAQ7 is added to find whether the cells are alive or not.

Substance	PAD4 inhibitory ability relative to Cl-amidine and VB1C12 peptide (PAD4)	PAD4 inhibition, dose dependence (PAD4)	PAD4 inhibitory activity compared with the existing PAD4 inhibitor (PAD4)	concentration necessary for incorporation in HeLa cells (HeLa cells)
VB1C12-Cl-amidine analog: VB1C12 peptide with a haloacetamidine warhead introduced by modifying the Arg residue (ornithine δNH2 chloroacetamidine) (Ac-[dF]NA[Ahp(2)]YPY[Orn](chloroacetamidine)PP[Ahp(2)]TSC; bridge N-14; not fully specified (C-terminus, bridges))	2.7 times	–	–	–
^ClAc-D-F-D-A-Ahep-Y-P-F-R-P-P-Ahep-A-H-C (Ac-[dF]DA[Ahp(2)]YPFRPP[Ahp(2)]AHC; bridge N-14; not fully specified (C-terminus, bridges); printed as ClAc-D-F-D-A-Ahep-Y-P-F-R-P-P-Ahep-A-H-C) [VB1C20]	–	dose-dependently inhibit PAD4	not stronger than that of the existing PAD4 inhibitor	at least 10 μM
^ClAc-D-F-N-A-Ahep-Y-P-Y-R-P-P-Ahep-T-S-C ({CH2CO}-[dF]NA[Ahp(2)]YPYRPP[Ahp(2)]TSC-NH2; thioether N-14; SMILES CCCCC[C@@H]1NC(=O)[C@H](C)NC(=O)[C@H](CC(N)=O)NC(=O)[C@@H](Cc2ccccc2)NC(=O)CSC[C@@H](C(N)=O)NC(=O)[C@H](CO)NC(=O)[C@H]([C@@H](C)O)NC(=O)[C@H](CCCCC)NC(=O)[C@@H]2CCCN2C(=O)[C@@H]2CCCN2C(=O)[C@H](CCCNC(=N)N)NC(=O)[C@H](Cc2ccc(O)cc2)NC(=O)[C@@H]2CCCN2C(=O)[C@H](Cc2ccc(O)cc2)NC1=O) [VB1C12]	–	dose-dependently inhibit PAD4	not stronger than that of the existing PAD4 inhibitor	–
